From patent US20060078537A1 (published 2006)

B1: RM construct (RANTES-linker-(VH) anti-CD4-linker-(VL) anti-CD4) (other)
chain: SPYSSDTTPCCFAYIARPLPRAHIKEYFYTSGKCSNPAVVFVTRKNRQVCANPEKKWVREYINSLQMSSGGGGSGGGGSDIQLQQSGPELVKPGASVKMSCKASGYTFTDYVINWVKQRTGQGLEWIGEIYPGSGSDYYNENLKDKATLTADKSSNTAYMQLSSLTSEDSAVYFCARKGENGNSLAFAYWGQGTLVTVSAGGGGSGGGGSGGGGDIVLTQSPASLAVSLGQRATISCKASQSVDYDGDSYMNWYQQKSGQPPKLLIYAASNLESGIPARFSGSGSGTDFTLNIHPVEEEDAATYYCQQSIQDPCTFGGGTELEIKHHHHHH
notes: also called RANTES-antiCD4; RANTES-anti-CD4
B2: MR construct ((VL) anti-CD4-linker-(VH) anti-CD4-linker-RANTES) (other)
chain: DYKDDDDKDIVLTQSPASLAVSLGQRATISCKASQSVDYDGDSYMNWYQQKSGQPPKLLIYAASNLESGIPARFSGSGSGTDFTLNIHPVEEEDAATYYCQQSIQDPCTFGGGTELEIKGGGGSGGGGSGGGGSQVQLQQSGPELVKPGASVKMSCKASGYTFTDYVINWVKQRTGQGLEWIGEIYPGSGSDYYNENLKDKATLTADKSSNTAYMQLSSLTSEDSAVYFCARKGENGNSLAFAYWGQGTLVTVSAGGGGSGGGGSSPYSSDTTPCCFAYIARPLPRAHIKEYFYTSGKCSNPAVVFVTRKNRQVCANPEKKWVREYINSLQMSHHHHHH
notes: Expressed in the periplasm of E. coli and also in CHO cells; also called antiCD4-RANTES

Assays:
human CCR5 = target: T1, human CCR5 (human, UniProt P51681 1-352); assay: told from CCR5 internalization on CD4+ and CD8+ T cells of human PBMC (FACS)
T1 construct: whole, on cells; also called CCR5 receptor
Procedure: (§1) RM and MR induced internalization of CCR5 on T cells is shown in FIGS. 7A and 7B, respectively. Human PBMC were incubated for 30 min at 37° C. with various concentrations of RM (FIG. 7A), MR (FIG. 7B) and RANTES and stained on ice for 1 h with a combination of directly conjugated antibodies against CCR5, CD8 and CD4. Mean channel fluorescence (MCF) of CCR5 was quantified on CD4 and CD8 positive T cells by FACS-analysis. Relative surface expression of CCR5 was calculated as [MCF(exp.)-MCF(negative control)]/[(MCF(medium)-MCF(negative control).
as §1, with “Human” for “RM and MR induced internalization of CCR5 on T cells is shown in FIGS. 7A and 7B, respectively. Human”, “RANTES. Cells were then” for “RANTES and”, “CD4 (CCR5-PE, Pharmingen, CD8-Cychrome, Immunotech and CD4-APC, Immunotech). CD4+ and CD8+ T cells were identified by expression of CD4 and CD8 as well as by their light scatter properties.” for “CD4.”

CD4 on human T cells [1] = target: T2, CD4 on human T cells (human, UniProt P01730 26-458); assay: FACS on PBMC
T2 construct: whole, on cells
Procedure: (§2) PBMC were incubated for 1 h on ice with the constructs RM and MR in various concentrations. After washing with PBS, cell bound constructs were detected with an antibody against 6×His (Dianova) or an antibody against RANTES (VL-1) followed by incubation with PE-labelled rabbit-anti-mouse F(ab) fragments (Dako R439). Binding of RM and MR to CD4 on T cells was detected by FACS analysis (FIG. 6A).

CD4 on human T cells [2] = target: T2, CD4 on human T cells; assay: FACS on PBMC, 1 h on ice, detected with anti-6xHis or anti-RANTES (VL-1) antibody
Procedure: as §2

T1 sequence (P51681 whole entry): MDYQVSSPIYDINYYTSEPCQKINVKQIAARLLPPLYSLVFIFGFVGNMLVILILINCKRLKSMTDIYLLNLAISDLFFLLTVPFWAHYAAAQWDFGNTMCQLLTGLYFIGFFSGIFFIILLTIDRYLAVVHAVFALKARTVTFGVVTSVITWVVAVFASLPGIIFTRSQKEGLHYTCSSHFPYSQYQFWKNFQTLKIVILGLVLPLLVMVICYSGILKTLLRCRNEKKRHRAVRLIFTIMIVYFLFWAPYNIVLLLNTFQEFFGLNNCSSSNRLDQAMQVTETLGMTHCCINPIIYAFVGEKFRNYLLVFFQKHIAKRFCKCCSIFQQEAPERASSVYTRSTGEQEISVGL

Row | Binder | binding result (human CCR5) | binding result (CD4 on human T cells [1]) | binding result (CD4 on human T cells [2])
1 | B1 | binds | binds | –
2 | B2 | binds | – | binds
